Test results taken from paper PMC11767649, “Two Cysteines in Raf Kinase Inhibitor Protein Make Differential Contributions to Structural Dynamics In Vitro” (Molecules, 2025).

Target: the molecule itself
Assay: LC Q-TOF mass spectrometry; purified rhRKIP WT and mutant proteins in buffer at pH 7.4; peaks around 22 kDa (monomer) and 44 kDa (dimer)

Row | Protein | stoichiometry N
1 | rhRKIP C168A mutant, histidine-tagged (natural protein, human, UniProt P30086 1-187, looked up, human RKIP (PEBP1), cDNA GenBank NM_002567 in pET28B+, site-directed mutant; Same construct as m1 with the point mutation; source: E. coli BL21(DE3), purified (Ni-NTA)) MPVDLSKWSGPLSLQEVDEQPQHPLHVTYAGAAVDELGKVLTPTQVKNRPTSISWDGLDSGKLYTLVLTDPDAPSRKDPKYREWHHFLVVNMKGNDISSGTVLSDYVGSGPPKGTGLHRYVWLVYEQDRPLKCDEPILSNRSGDHRGKFKVASFRKKYELRAPVAGTAYQAEWDDYVPKLYEQLSGK | 2

Target: the molecule itself
Assay: non-reducing SDS-PAGE; purified rhRKIP in sample loading buffer without β-mercaptoethanol or boiling; Coomassie Brilliant Blue staining or anti-His immunoblot

Row | Protein | stoichiometry N
2 | rhRKIP C133S mutant, histidine-tagged (natural protein, human, UniProt P30086 1-187, looked up, human RKIP (PEBP1), cDNA GenBank NM_002567 in pET28B+, site-directed mutant; Same construct as m1 with the point mutation; source: E. coli BL21(DE3), purified (Ni-NTA)) MPVDLSKWSGPLSLQEVDEQPQHPLHVTYAGAAVDELGKVLTPTQVKNRPTSISWDGLDSGKLYTLVLTDPDAPSRKDPKYREWHHFLVVNMKGNDISSGTVLSDYVGSGPPKGTGLHRYVWLVYEQDRPLKSDEPILSNRSGDHRGKFKVASFRKKYELRAPVAGTCYQAEWDDYVPKLYEQLSGK | 2
3 | rhRKIP Ser153 to aspartate mutant, histidine-tagged (natural protein, human, UniProt P30086 1-187, looked up, human RKIP (PEBP1), cDNA GenBank NM_002567 in pET28B+, site-directed mutant; Same construct as m1 with the point mutation; also called S153D; source: E. coli BL21(DE3), purified (Ni-NTA)) MPVDLSKWSGPLSLQEVDEQPQHPLHVTYAGAAVDELGKVLTPTQVKNRPTSISWDGLDSGKLYTLVLTDPDAPSRKDPKYREWHHFLVVNMKGNDISSGTVLSDYVGSGPPKGTGLHRYVWLVYEQDRPLKCDEPILSNRSGDHRGKFKVADFRKKYELRAPVAGTCYQAEWDDYVPKLYEQLSGK | 2
4 | rhRKIP C168S mutant, histidine-tagged (natural protein, human, UniProt P30086 1-187, looked up, human RKIP (PEBP1), cDNA GenBank NM_002567 in pET28B+, site-directed mutant; Same construct as m1 with the point mutation; source: E. coli BL21(DE3), purified (Ni-NTA)) MPVDLSKWSGPLSLQEVDEQPQHPLHVTYAGAAVDELGKVLTPTQVKNRPTSISWDGLDSGKLYTLVLTDPDAPSRKDPKYREWHHFLVVNMKGNDISSGTVLSDYVGSGPPKGTGLHRYVWLVYEQDRPLKCDEPILSNRSGDHRGKFKVASFRKKYELRAPVAGTSYQAEWDDYVPKLYEQLSGK | 2
5 | rhRKIP Ser153 to glutamate mutant, histidine-tagged (natural protein, human, UniProt P30086 1-187, looked up, human RKIP (PEBP1), cDNA GenBank NM_002567 in pET28B+, site-directed mutant; Same construct as m1 with the point mutation; also called S153E; source: E. coli BL21(DE3), purified (Ni-NTA)) MPVDLSKWSGPLSLQEVDEQPQHPLHVTYAGAAVDELGKVLTPTQVKNRPTSISWDGLDSGKLYTLVLTDPDAPSRKDPKYREWHHFLVVNMKGNDISSGTVLSDYVGSGPPKGTGLHRYVWLVYEQDRPLKCDEPILSNRSGDHRGKFKVAEFRKKYELRAPVAGTCYQAEWDDYVPKLYEQLSGK | 2
6 | rhRKIP Ser153 to alanine mutant, histidine-tagged (natural protein, human, UniProt P30086 1-187, looked up, human RKIP (PEBP1), cDNA GenBank NM_002567 in pET28B+, site-directed mutant; Same construct as m1 with the point mutation; also called S153A; source: E. coli BL21(DE3), purified (Ni-NTA)) MPVDLSKWSGPLSLQEVDEQPQHPLHVTYAGAAVDELGKVLTPTQVKNRPTSISWDGLDSGKLYTLVLTDPDAPSRKDPKYREWHHFLVVNMKGNDISSGTVLSDYVGSGPPKGTGLHRYVWLVYEQDRPLKCDEPILSNRSGDHRGKFKVAAFRKKYELRAPVAGTCYQAEWDDYVPKLYEQLSGK | 2
